Experiment [1] has as its target T1, rat TL1A, soluble, CHO-expressed, residues 76-252 of SEQ ID NO:258 with N-terminal His6-tag (rat, UniProt Q8K3Y7 76-252).
T1 construct: also called rTL1A; rTL1A (CHO)
T1 sequence: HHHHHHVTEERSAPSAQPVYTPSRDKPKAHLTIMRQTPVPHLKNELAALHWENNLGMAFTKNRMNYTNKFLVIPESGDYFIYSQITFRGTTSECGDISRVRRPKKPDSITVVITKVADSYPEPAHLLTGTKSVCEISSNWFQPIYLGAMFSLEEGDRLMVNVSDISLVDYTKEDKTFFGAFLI
Description: SPR 37C, mAb captured. The method, boiled down: (§1)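 Biacore T100 SPR with captured mAb and soluble TL1A/Fhm analyte; ka and kd fitted to a 1:1 model assuming monomeric TL1A. KD = kd/ka; t1/2 (min) = ln2/(60·kd).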

For experiment [2], the target named is T2, Fhm, hTL1A(Q167R), soluble, E. coli-expressed, residues 72-251 of SEQ ID NO:246 (human, UniProt O95150 72-251).
T2 construct: with or without N-terminal Met
T2 chain: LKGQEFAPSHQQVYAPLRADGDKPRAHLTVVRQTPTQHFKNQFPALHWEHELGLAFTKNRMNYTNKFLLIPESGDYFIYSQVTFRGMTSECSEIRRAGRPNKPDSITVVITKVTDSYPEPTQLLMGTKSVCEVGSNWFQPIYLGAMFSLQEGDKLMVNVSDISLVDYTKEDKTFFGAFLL
Description: SPR 37C, mAb captured. The essentials:
as §1

The target of experiment [3] is T3, Fhm, hTL1A(Q167R), soluble, CHO-expressed, residues 72-251 of SEQ ID NO:246 (human, UniProt O95150 72-251).
T3 construct: also called Fhm (CHO); FHM (CHO)
T3 chain: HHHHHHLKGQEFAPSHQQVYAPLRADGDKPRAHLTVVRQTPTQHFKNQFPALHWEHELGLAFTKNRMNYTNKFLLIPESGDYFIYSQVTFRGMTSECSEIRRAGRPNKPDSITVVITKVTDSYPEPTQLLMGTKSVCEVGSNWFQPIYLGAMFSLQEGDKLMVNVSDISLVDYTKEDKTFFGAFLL
Description: ELISA, blocks FHM (10 pM) binding hDcR3-Fc. As to the method:
The ability of antibodies to block human TL1A binding to its cognate receptors, the DR3 and DcR3 receptors, was measured using a competition sandwich ELISA. In addition, blocking of a human TL1A variant FHM (human TL1A Q167R) and the cynomolgus monkey (Macaca fascicularis) TL1A (MfTL1A) protein binding to the human DR3 or DcR3 receptors was measured in the same manner. Constant amounts of biotinylated human TL1A or FHM (both expressed with a 6-His tag in CHO cells) or biotinylated MfTL1A (expressed in CHO cells) were separately titrated with varying amounts of antibodies. The antibody-protein complexes were incubated in solution (1 hr, 25° C.) and then transferred to microtiter plates coated with human DR3 (hDR3) or human DcR3 (hDcR3) expressed as human IgG1 Fc fusion proteins. After one hour at 25° C. the wells were washed, and bound human or monkey TL1A was detected with streptavidin conjugated with horseradish peroxidase (HRP). Wells were developed with a TMB solution to produce a colorimetric reaction and quenched with aqueous sulfuric acid before reading absorbance at 450 nm on a Perkin-Elmer Victor X5 plate reader. A sigmoidal dose-response curve was fit to the data using the Prism™ data analysis package. […] Both fully human anti-hTL1A mAbs and comparator antibodies, i.e., control mAb1 (an anti-hTL1A antibody with heavy and light chain variable domains having the amino acid sequences corresponding to SEQ ID NOS:21 and 27, respectively, of US 2009/0280116) and control mAb3 (an anti-hTL1A antibody with heavy and light chain variable domains having the amino acid sequences corresponding to SEQ ID NOS:57 and 48, respectively, of US 2009/0280116), were included in the study. NB: No binding under the conditions tested; NT: Not tested. Concentrations of biotinylated soluble ligands: (1) 150 pM; (2) 500 pM; (3) 10 pM; and (4) 50 pM.
Background: An ELISA detects its analyte on a solid surface through an enzyme-linked reagent.

Experiment [4] has as its target T4, mouse TL1A, soluble, E. coli-expressed, residues 76-252 of SEQ ID NO:250 (mouse, UniProt Q5UBV8 76-252).
T4 construct: with or without N-terminal Met; also called mTL1A (E. Coli)
T4 sequence: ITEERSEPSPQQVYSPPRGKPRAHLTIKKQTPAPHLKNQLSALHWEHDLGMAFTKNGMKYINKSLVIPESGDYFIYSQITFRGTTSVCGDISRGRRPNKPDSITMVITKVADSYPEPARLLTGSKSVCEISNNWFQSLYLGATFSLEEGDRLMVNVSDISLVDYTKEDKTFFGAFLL
Description: SPR 25C, steady state. The method, boiled down:
as §1

For experiment [5], the target named is T5, cynomolgus monkey TL1A, soluble, E. coli-expressed, residues 72-251 of SEQ ID NO:248 (cynomolgus monkey (Macaca fascicularis), UniProt O95150 72-251 (human entry)).
T5 construct: with or without N-terminal Met; also called MfTL1A (E. Coli)
T5 chain: T2 chain with F39L, I78V, R96Q
Description: SPR 25C, mAb captured. The essentials:
as §1

The target in experiment [6] is T2, Fhm, hTL1A(Q167R), soluble, E. …. Description: SPR 25C, mAb captured. The method, boiled down:
as §1

Substitutions are numbered along the chain they refer to.

B1: H4H1745P (antibody, human IgG4 S228P, V domains shown)
VH: EVQLVESGGGLVQPGGSLRLSCAASGFTFSSYAMTWVRQAPGKGLEWVSGVSGRGGSTYYADSVKGRFTISRDNSKNTLYLQMNSLRAEDTAVYYCAYWDISSFDYWGQGTLVTVSS
VL: DIQLTQSPSFLSASVGDRVTITCWASQGISTYLAWYQQKPGKTPKLLIYAASTLQSGVPSRFSGSGSGTDFTLTISSLQPEDFATYYCQQFNSYPLTFGGGTKVEIK
The term Kd denotes the constant that tells how readily two partners part at equilibrium. By IC50 is commonly meant the concentration that gives 50% inhibition. As for B1, the Kd in experiment [1] was 16.5 nM; in experiment [2], 0.207 nM; in experiment [5], 0.141 nM; in experiment [6], 0.115 nM. The t1/2 in experiment [1] came to 0.183 h; in experiment [2] it was 1.18 h; in experiment [5] it was 3.68 h; in experiment [6] it was 3.77 h. The molecule further came in with an IC50 in experiment [3] of 0.085 nM. In addition, the binding result in experiment [4] was “no binding (tested: up to 100 nM)”.

Source of the values: patent US20140120109A1 (Regeneron, published 2014).
